What follows are sequences tested on Escherichia coli TOP10 (assay: shrunken log2 fold change of peptide-encoding DNA abundance (4.5 h post-induction vs induction); higher = less antimicrobial activity (less host growth inhibition)). Conditions: time post-induction: 4.5 h; library: site-saturation at positions 5, 18, 19, 20.
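Also: peptides expressed intracellularly from a pBAD plasmid library in pooled LB shake-flask culture, induced with 0.3% L-arabinose, DNA abundance read by NGS, three biological replicates, DESeq2 with apeglm shrinkage.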

Sequence | shrunken log2 fold change
RRIRKRPPRLPRPRPRPWYGPRP | -0.188
RRIRYRPPRLPRPRPRPFVTPRP | -0.156
RRIRQRPPRLPRPRPRPAGVPRP | -0.102
RRIRPRPPRLPRPRPRPRDHPRP | 0.279
RRIRTRPPRLPRPRPRPVQLPRP | -0.16
RRIRTRPPRLPRPRPRPNETPRP | 0.0139
RRIRIRPPRLPRPRPRPPARPRP | 0.393
RRIRCRPPRLPRPRPRPNFCPRP | -0.157
RRIRDRPPRLPRPRPRPRYFPRP | 0.242
RRIRRRPPRLPRPRPRPDDSPRP | -0.0232
RRIRYRPPRLPRPRPRPIDLPRP | -0.0513
RRIRRRPPRLPRPRPRPHGIPRP | 0.0963
RRIRTRPPRLPRPRPRPQMMPRP | -0.0792
RRIRMRPPRLPRPRPRPSKKPRP | -0.0297
RRIRYRPPRLPRPRPRPRNFPRP | -0.358
RRIRSRPPRLPRPRPRPVMTPRP | -0.0963
RRIRNRPPRLPRPRPRPSWMPRP | -0.487
RRIRMRPPRLPRPRPRPYIWPRP | -0.402
RRIRPRPPRLPRPRPRPAPNPRP | 1.16
RRIRDRPPRLPRPRPRPGTFPRP | 0.00435
RRIRQRPPRLPRPRPRPPQYPRP | 0.198
RRIRVRPPRLPRPRPRPHKLPRP | -0.317
RRIRERPPRLPRPRPRPLLSPRP | -0.206
RRIRRRPPRLPRPRPRPSENPRP | -0.0437
RRIRPRPPRLPRPRPRPDMGPRP | -0.407

Sequence | shrunken log2 fold change
RRIRKRPPRLPRPRPRPFSHPRP | -0.131
RRIRERPPRLPRPRPRPFQHPRP | -0.252
RRIRPRPPRLPRPRPRPPNAPRP | 0.435
RRIRPRPPRLPRPRPRPWCKPRP | -0.162
RRIRQRPPRLPRPRPRPLQIPRP | 0.223
RRIRWRPPRLPRPRPRPGGFPRP | 0.664
RRIRLRPPRLPRPRPRPFKYPRP | -0.482
RRIRSRPPRLPRPRPRPTMEPRP | 0.317
RRIRWRPPRLPRPRPRPEKGPRP | 0.0282
RRIRKRPPRLPRPRPRPIDAPRP | 0.318
RRIRQRPPRLPRPRPRPKKRPRP | 0.107
RRIRWRPPRLPRPRPRPANVPRP | -0.624
RRIRRRPPRLPRPRPRPHKLPRP | 0.022
RRIRNRPPRLPRPRPRPKVWPRP | 0.68
RRIRQRPPRLPRPRPRPSQFPRP | 0.00374
RRIRNRPPRLPRPRPRPNRVPRP | -0.0281
RRIRDRPPRLPRPRPRPKAIPRP | -0.0326
RRIRWRPPRLPRPRPRPPYRPRP | 3.11
RRIRSRPPRLPRPRPRPPMVPRP | 0.131
RRIRARPPRLPRPRPRPSNNPRP | -0.376
RRIRPRPPRLPRPRPRPVQGPRP | -0.0469
RRIRQRPPRLPRPRPRPDKIPRP | -0.00225
RRIRYRPPRLPRPRPRPFLEPRP | -0.775
RRIRKRPPRLPRPRPRPGYPPRP | 0.0931
RRIRHRPPRLPRPRPRPPCVPRP | -0.108

Sequence | shrunken log2 fold change
RRIRERPPRLPRPRPRPMTWPRP | 0.0575
RRIRERPPRLPRPRPRPCINPRP | -0.0818
RRIRGRPPRLPRPRPRPAKCPRP | -0.0198
RRIRPRPPRLPRPRPRPYKIPRP | -0.227
RRIRQRPPRLPRPRPRPALVPRP | 0.297
RRIRYRPPRLPRPRPRPNRYPRP | -0.499
RRIRTRPPRLPRPRPRPMHKPRP | -0.271
RRIRYRPPRLPRPRPRPKVMPRP | -0.296
RRIRCRPPRLPRPRPRPFHTPRP | -0.0266
RRIRCRPPRLPRPRPRPATYPRP | -0.389
RRIRCRPPRLPRPRPRPTEPPRP | 0.305
RRIRNRPPRLPRPRPRPIIGPRP | 0.0444
RRIRERPPRLPRPRPRPIVNPRP | -0.0349
RRIRYRPPRLPRPRPRPVMSPRP | -0.233
RRIRYRPPRLPRPRPRPASCPRP | -0.235
RRIRQRPPRLPRPRPRPRCKPRP | 0.268
RRIRPRPPRLPRPRPRPATSPRP | 0.358
RRIRDRPPRLPRPRPRPIAEPRP | 0.195
RRIRIRPPRLPRPRPRPKNPPRP | -0.439
RRIRHRPPRLPRPRPRPELQPRP | 0.07
RRIRDRPPRLPRPRPRPVAAPRP | 0.833
RRIRQRPPRLPRPRPRPCVMPRP | -0.149
RRIRMRPPRLPRPRPRPQALPRP | 0.0439
RRIRYRPPRLPRPRPRPIIQPRP | -0.0128
RRIRVRPPRLPRPRPRPNIKPRP | -0.497

Sequence | shrunken log2 fold change
RRIRQRPPRLPRPRPRPGHWPRP | 0.0453
RRIRERPPRLPRPRPRPLCMPRP | -0.592
RRIRFRPPRLPRPRPRPCDHPRP | -0.0275
RRIRDRPPRLPRPRPRPKVMPRP | -0.054
RRIRLRPPRLPRPRPRPDRVPRP | -0.0538
RRIRKRPPRLPRPRPRPIPWPRP | 0.466
RRIRFRPPRLPRPRPRPQWAPRP | 0.136
RRIRERPPRLPRPRPRPFVSPRP | 0.176
RRIRIRPPRLPRPRPRPKIQPRP | -0.196
RRIRQRPPRLPRPRPRPYMYPRP | -0.0364
RRIRPRPPRLPRPRPRPRYSPRP | -0.354
RRIRCRPPRLPRPRPRPTCPPRP | -0.26
RRIRGRPPRLPRPRPRPQFDPRP | 0.61
RRIRFRPPRLPRPRPRPAGVPRP | 0.172
RRIRQRPPRLPRPRPRPPLNPRP | 0.633
RRIRGRPPRLPRPRPRPHNNPRP | -0.215
RRIRIRPPRLPRPRPRPVKHPRP | -0.107
RRIRLRPPRLPRPRPRPGLTPRP | -0.00899
RRIRLRPPRLPRPRPRPVQTPRP | 0.102
RRIRRRPPRLPRPRPRPQASPRP | 0.0463
RRIRKRPPRLPRPRPRPTWLPRP | 0.638
RRIRHRPPRLPRPRPRPCDEPRP | -0.0443
RRIRLRPPRLPRPRPRPIIFPRP | -0.288
RRIRQRPPRLPRPRPRPKEFPRP | 0.0639
RRIRTRPPRLPRPRPRPSCEPRP | -0.252

Sequence | shrunken log2 fold change
RRIRWRPPRLPRPRPRPQCFPRP | 0.146
RRIRFRPPRLPRPRPRPDGGPRP | -0.537
RRIRWRPPRLPRPRPRPSPGPRP | -0.0366
RRIRRRPPRLPRPRPRPGQRPRP | 0.386
RRIRRRPPRLPRPRPRPKCSPRP | 0.504
RRIRARPPRLPRPRPRPIIPPRP | -0.256
RRIRVRPPRLPRPRPRPGYGPRP | 0.0756
RRIRFRPPRLPRPRPRPMHKPRP | -0.263
RRIRNRPPRLPRPRPRPVQNPRP | -0.0269
RRIRSRPPRLPRPRPRPYPNPRP | 0.00334
RRIRPRPPRLPRPRPRPLLAPRP | 1.42
RRIRPRPPRLPRPRPRPPKNPRP | 0.26
RRIRKRPPRLPRPRPRPTRYPRP | 0.438
RRIRNRPPRLPRPRPRPGRSPRP | 0.17
RRIRMRPPRLPRPRPRPDPYPRP | -0.0396
RRIRPRPPRLPRPRPRPMTPPRP | 0.165
RRIRLRPPRLPRPRPRPFWDPRP | 0.184
RRIRVRPPRLPRPRPRPHIKPRP | -0.389
RRIRERPPRLPRPRPRPCIMPRP | -0.397
RRIRLRPPRLPRPRPRPEQAPRP | 0.0554
RRIRRRPPRLPRPRPRPANYPRP | -0.049
RRIRWRPPRLPRPRPRPNEFPRP | -0.161
RRIRARPPRLPRPRPRPPPRPRP | 1.56
RRIRERPPRLPRPRPRPVQHPRP | -0.402
RRIRPRPPRLPRPRPRPTINPRP | -0.51

Sequence | shrunken log2 fold change
RRIRWRPPRLPRPRPRPMHNPRP | -0.218
RRIRHRPPRLPRPRPRPADEPRP | 0.0084
RRIRRRPPRLPRPRPRPHVPPRP | -0.148
RRIRIRPPRLPRPRPRPAVRPRP | 0.445
RRIRWRPPRLPRPRPRPGEWPRP | 0.162
RRIRMRPPRLPRPRPRPPLCPRP | 1.72
RRIRKRPPRLPRPRPRPITCPRP | 0.0162
RRIRYRPPRLPRPRPRPKKKPRP | -0.104
RRIRKRPPRLPRPRPRPVFLPRP | -0.0387
RRIRTRPPRLPRPRPRPKWKPRP | -0.0786
RRIRYRPPRLPRPRPRPWSMPRP | -0.221
RRIRDRPPRLPRPRPRPGWCPRP | 0.201
RRIRVRPPRLPRPRPRPPNVPRP | -0.0619
RRIRYRPPRLPRPRPRPDCVPRP | -0.3
RRIRHRPPRLPRPRPRPMAGPRP | -0.0581
RRIRFRPPRLPRPRPRPYGQPRP | -0.101
RRIRQRPPRLPRPRPRPINGPRP | -0.000925
RRIRDRPPRLPRPRPRPKQNPRP | 0.277
RRIRERPPRLPRPRPRPSPMPRP | -0.0654
RRIRIRPPRLPRPRPRPQKAPRP | 0.0173
RRIRSRPPRLPRPRPRPKLYPRP | -0.199
RRIRVRPPRLPRPRPRPKERPRP | 0.0774
RRIRPRPPRLPRPRPRPRYAPRP | 0.0891
RRIRNRPPRLPRPRPRPEGRPRP | 0.177
RRIRKRPPRLPRPRPRPDMNPRP | 0.375

From the supplement of paper PMC9112550, “Optimization of the antimicrobial peptide Bac7 by deep mutational scanning” (BMC Biology, 2022)
